In data set [1] the target is T1, Hera_RBD K455A (Thermus thermophilus, UniProt O07897 424-510, K455A).
T1 sequence: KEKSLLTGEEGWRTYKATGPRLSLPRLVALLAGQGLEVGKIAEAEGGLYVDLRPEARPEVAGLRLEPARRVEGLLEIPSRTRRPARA
Briefly: fluorescence anisotropy; 5 mM Mg2+; Anisotropy: 50 mM Tris/HCl pH 7.5, 150 mM NaCl, 5 mM MgCl2 (Fig 2), 25 C, 50 nM RNA; EMSA: same Tris/NaCl, 12% glycerol, 25 C; NMR: 25 mM Bis-Tris/HCl pH 6.0, 50 mM NaCl, 10% D2O, 37 C. Particulars: protein: recombinant; label: 5'-fluorescein; hairpin with 5' single strand.

Data set [2] addresses T2, Hera_RBD Q457C (Thermus thermophilus, UniProt O07897 424-510, Q457C).
T2 sequence: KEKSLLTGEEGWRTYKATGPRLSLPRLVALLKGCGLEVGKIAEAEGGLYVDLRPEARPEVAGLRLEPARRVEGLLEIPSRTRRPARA
The description is as above. Particulars: protein: recombinant; label: 5'-fluorescein; hairpin with 5' single strand.

Data set [3] has as its target T3, Hera_RBD R444A/R449A (Thermus thermophilus, UniProt O07897 424-510, R444A;R449A).
T3 sequence: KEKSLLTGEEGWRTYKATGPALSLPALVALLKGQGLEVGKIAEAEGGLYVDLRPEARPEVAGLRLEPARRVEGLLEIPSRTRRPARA
The data set is described as above. Particulars: protein: recombinant; label: 5'-fluorescein; hairpin with 5' single strand.

The target of data set [4] is T4, Hera_RBD K439A (Thermus thermophilus, UniProt O07897 424-510, K439A).
T4 sequence: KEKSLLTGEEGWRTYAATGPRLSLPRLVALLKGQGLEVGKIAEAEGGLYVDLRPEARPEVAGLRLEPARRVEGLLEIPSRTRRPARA
The data set is described as above. The conditions noted are these: protein: recombinant; label: 5'-fluorescein; hairpin with 5' single strand.

Data set [5] deals with T5, Hera_RBD S446C (Thermus thermophilus, UniProt O07897 424-510, S446C).
T5 sequence: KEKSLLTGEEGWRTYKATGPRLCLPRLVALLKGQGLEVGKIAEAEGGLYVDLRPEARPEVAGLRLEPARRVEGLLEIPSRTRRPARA
Described as above. The conditions noted are these: protein: recombinant; label: 5'-fluorescein; hairpin with 5' single strand.

Data set [6] deals with T6, Hera_RBD R449A (Thermus thermophilus, UniProt O07897 424-510, R449A).
T6 sequence: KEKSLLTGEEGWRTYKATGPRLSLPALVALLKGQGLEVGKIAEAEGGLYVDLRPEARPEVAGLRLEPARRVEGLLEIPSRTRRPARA
The description is as above. Particulars: protein: recombinant; label: 5'-fluorescein; hairpin with 5' single strand.

In data set [7] the target is T7, Hera_RBD R487A (Thermus thermophilus, UniProt O07897 424-510, R487A).
T7 sequence: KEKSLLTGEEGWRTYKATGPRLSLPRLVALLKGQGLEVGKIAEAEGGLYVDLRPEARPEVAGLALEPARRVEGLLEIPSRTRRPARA
The description is as above. Particulars: protein: recombinant; label: 5'-fluorescein; hairpin with 5' single strand.

Data set [8] addresses T8, Hera_208-419 (RecA_C_DD) (Thermus thermophilus, UniProt O07897 208-419).
T8 sequence: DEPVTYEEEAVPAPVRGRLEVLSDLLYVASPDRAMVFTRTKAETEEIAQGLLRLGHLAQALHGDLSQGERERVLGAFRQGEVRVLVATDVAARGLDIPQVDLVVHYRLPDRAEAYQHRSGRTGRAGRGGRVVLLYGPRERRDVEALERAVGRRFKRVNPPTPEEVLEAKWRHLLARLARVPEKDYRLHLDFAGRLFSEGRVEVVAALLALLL
Description: fluorescence anisotropy; 5 mM Mg2+; compared with full-length Hera; Anisotropy: 50 mM Tris/HCl pH 7.5, 150 mM NaCl, 5 mM MgCl2 (Fig 2), 25 C, 50 nM RNA; EMSA: same Tris/NaCl, 12% glycerol, 25 C; NMR: 25 mM Bis-Tris/HCl pH 6.0, 50 mM NaCl, 10% D2O, 37 C. Particulars: protein: recombinant; chain copies: 2; label: 5'-fluorescein; hairpin with 5' single strand. (In general: In fluorescence polarisation assays a small probe gives low polarisation when free and higher when bound to something large.)

B1: 32mer (structured_RNA)
RNA: GCAGGUCCCAAGGGUUGGGCUGUUCGCCCAUU
Consider B1, for which the binding signal was below 5 fold Kd increase in data set [1]; below 5 fold Kd increase in data set [2]; above 25 fold Kd increase in data set [3]; below 5 fold Kd increase in data set [4]; below 5 fold Kd increase in data set [5]; above 25 fold Kd increase in data set [6]. In addition, the binding signal in data set [7] is below 5 fold Kd increase; in data set [8], around 70 fold Kd increase.

For the origin of these results see paper PMC3695512, “Recognition of two distinct elements in the RNA substrate by the RNA-binding domain of the T. thermophilus DEAD box helicase Hera”.
